Experimental data: patent US20040115660A1 (published 2004)

Assays:
mouse VEGFR2 = target: T1, mouse VEGFR2 (mouse, UniProt P35918 20-1345); assay: co-immunoprecipitation from cotransfected 293T cells
T1 construct: whole, on cells

human EGFR = target: T2, human EGFR (human, UniProt P00533 25-1210); assay: as above
T2 construct: whole, on cells

mouse TIE2 = target: T3, mouse TIE2 (mouse, UniProt Q02858 23-1122); assay: as above
T3 construct: whole, on cells

human EphB3 = target: T4, human EphB3 (human, UniProt P54753 34-998); assay: anti-Myc immunoprecipitation from 293T cells co-expressing RYK, AF-6 and EphB3 (FIG. 4b)
T4 construct: whole, on cells; also called Eph receptor B3
T4 sequence (looked up): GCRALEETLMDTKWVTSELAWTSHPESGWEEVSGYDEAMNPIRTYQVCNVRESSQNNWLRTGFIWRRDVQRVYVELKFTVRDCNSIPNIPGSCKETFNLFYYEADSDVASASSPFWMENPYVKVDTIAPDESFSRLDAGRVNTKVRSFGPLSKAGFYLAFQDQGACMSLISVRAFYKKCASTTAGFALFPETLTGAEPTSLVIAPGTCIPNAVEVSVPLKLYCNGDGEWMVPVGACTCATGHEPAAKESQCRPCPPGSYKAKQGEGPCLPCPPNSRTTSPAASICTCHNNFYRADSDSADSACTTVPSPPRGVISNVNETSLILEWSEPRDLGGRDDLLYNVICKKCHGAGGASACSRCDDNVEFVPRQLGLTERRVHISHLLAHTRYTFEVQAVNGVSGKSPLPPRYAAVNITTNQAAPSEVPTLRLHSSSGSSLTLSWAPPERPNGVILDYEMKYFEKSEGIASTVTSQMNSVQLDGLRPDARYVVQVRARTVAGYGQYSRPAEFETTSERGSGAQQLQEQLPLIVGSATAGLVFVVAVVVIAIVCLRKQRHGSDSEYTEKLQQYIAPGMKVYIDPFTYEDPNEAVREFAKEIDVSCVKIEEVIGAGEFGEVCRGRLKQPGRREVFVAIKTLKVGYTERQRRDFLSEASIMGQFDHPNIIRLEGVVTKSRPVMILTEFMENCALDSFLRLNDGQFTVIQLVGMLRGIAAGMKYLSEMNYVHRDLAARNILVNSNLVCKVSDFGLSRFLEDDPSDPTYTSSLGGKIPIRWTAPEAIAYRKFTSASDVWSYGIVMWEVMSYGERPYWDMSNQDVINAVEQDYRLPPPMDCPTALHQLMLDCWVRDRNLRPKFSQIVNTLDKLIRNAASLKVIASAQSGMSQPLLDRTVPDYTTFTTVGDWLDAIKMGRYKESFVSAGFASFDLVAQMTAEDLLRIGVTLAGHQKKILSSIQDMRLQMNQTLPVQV
Protocol: Lysis and subsequent analysis of complexes in triple-transfected cells was performed as previously described (13). The inventors prepared embryonic and tissue lysates by Dounce homogenization. The inventors cleared lysates of insoluble debris by centrifugation, and performed immunoprecipitation from cleared lysates containing equal amounts of total protein as assessed by the BCA assay (Pierce). Immune complexes were captured by incubation with protein A-, G- or L-conjugated beads. The mouse anti-RYK monoclonal antibody (IgMₓ isotype⁵) was covalently coupled to CNBr-activated Sepharose 4B (Pharmacia) at 1 mg/ml packed beads for immunoprecipitation or cross-linked it in solution using a goat anti-mouse IgM (Jackson Immunoresearch). The inventors used anti-FLAG monoclonal antibody M2 (Sigma) for immunoprecipitation as an affinity gel and for Western blotting in a biotinylated form. Anti-AF-6 monoclonal antibody (clone 35) was obtained from Transduction Laboratories and anti-Myc monoclonal antibody (clone 9E10) from Zymed Laboratories. Immune complexes were collected by centrifugation and washed three times in HNTG, eluted in 20-50 μL of 2×SDS-PAGE sample buffer containing 10% v/v 2-mercaptoethanol, fractionated by SDS-PAGE and electroblotted to Immobilon P (Millipore) for Western analysis. […]

endogenous mouse AF-6 = target: T5, endogenous mouse AF-6 (mouse, UniProt Q9QZQ1 1-1820, limits assumed); assay: co-immunoprecipitation from mouse tissue lysates, both directions (FIG. 4c)
T5 construct: also called Afadin
T5 sequence (Q9QZQ1 whole entry): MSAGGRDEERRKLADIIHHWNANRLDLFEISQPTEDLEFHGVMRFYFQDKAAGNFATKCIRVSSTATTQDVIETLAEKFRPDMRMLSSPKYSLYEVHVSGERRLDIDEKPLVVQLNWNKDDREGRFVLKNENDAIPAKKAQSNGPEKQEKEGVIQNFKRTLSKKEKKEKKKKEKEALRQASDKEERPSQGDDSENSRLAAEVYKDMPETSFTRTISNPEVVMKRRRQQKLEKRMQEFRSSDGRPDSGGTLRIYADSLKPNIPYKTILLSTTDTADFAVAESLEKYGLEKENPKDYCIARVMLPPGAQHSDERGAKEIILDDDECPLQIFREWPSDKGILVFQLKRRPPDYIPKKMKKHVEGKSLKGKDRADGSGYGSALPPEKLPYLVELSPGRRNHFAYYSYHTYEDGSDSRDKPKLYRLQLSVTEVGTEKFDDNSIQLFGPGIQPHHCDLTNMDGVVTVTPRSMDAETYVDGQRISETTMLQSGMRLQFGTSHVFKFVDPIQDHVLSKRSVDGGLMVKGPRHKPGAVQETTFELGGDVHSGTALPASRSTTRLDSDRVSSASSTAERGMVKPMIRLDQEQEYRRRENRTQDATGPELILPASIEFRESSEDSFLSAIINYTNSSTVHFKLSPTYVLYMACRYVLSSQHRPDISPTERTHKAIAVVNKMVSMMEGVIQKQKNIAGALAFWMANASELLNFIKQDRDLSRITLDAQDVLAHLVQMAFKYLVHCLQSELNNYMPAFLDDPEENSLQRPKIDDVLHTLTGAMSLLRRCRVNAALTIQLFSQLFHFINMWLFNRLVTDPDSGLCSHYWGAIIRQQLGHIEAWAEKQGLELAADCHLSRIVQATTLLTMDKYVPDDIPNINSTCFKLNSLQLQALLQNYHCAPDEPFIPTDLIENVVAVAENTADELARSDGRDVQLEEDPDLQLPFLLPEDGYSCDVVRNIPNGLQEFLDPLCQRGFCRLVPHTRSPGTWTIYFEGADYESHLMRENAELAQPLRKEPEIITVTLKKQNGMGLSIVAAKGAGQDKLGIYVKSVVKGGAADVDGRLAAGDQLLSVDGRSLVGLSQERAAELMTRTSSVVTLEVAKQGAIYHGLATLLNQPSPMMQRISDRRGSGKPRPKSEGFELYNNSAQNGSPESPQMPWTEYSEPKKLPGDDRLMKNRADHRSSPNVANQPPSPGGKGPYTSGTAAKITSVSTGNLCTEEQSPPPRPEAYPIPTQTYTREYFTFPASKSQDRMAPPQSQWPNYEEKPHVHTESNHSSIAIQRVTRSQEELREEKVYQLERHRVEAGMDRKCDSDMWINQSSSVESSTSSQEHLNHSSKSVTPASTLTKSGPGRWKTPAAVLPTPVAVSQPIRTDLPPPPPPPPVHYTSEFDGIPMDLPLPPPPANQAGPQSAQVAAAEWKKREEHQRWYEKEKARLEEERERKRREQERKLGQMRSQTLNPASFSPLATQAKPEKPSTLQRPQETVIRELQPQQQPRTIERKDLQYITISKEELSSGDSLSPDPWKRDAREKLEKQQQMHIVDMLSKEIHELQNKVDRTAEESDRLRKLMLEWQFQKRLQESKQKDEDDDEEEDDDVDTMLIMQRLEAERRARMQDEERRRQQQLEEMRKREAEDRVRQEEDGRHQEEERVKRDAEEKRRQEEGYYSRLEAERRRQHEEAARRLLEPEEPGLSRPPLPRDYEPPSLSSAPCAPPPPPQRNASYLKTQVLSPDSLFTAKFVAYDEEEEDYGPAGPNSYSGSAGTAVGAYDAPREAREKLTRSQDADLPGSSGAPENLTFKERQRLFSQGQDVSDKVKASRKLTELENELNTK

T3 sequence (Q02858 23-1122): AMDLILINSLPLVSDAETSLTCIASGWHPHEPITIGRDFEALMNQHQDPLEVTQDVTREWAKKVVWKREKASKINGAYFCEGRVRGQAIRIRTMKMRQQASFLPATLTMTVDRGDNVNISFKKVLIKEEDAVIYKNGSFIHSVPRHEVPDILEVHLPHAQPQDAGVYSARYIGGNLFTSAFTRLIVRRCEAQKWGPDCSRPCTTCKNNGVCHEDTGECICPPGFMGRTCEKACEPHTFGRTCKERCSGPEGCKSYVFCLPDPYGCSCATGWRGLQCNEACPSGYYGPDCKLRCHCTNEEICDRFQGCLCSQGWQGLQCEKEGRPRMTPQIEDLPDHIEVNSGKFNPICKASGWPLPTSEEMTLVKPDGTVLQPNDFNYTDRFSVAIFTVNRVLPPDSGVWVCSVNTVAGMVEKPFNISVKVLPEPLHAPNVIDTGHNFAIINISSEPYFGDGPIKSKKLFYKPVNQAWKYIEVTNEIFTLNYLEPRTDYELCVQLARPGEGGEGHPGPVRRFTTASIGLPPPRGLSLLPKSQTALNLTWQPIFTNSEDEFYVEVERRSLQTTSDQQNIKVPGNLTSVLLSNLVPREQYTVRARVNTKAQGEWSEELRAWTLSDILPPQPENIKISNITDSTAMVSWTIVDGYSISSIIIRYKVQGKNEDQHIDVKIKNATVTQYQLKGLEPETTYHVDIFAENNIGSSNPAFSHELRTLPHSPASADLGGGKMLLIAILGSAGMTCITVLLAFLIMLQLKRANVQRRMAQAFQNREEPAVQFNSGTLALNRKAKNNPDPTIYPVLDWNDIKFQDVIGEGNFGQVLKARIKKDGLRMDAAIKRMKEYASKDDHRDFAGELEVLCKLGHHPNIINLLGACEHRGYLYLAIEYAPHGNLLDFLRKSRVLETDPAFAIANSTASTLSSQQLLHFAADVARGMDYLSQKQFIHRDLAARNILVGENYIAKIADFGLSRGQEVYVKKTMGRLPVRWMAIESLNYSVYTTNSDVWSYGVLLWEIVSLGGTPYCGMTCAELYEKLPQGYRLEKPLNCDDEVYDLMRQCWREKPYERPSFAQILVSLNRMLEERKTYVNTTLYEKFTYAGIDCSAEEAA
T1 sequence (P35918 20-1345): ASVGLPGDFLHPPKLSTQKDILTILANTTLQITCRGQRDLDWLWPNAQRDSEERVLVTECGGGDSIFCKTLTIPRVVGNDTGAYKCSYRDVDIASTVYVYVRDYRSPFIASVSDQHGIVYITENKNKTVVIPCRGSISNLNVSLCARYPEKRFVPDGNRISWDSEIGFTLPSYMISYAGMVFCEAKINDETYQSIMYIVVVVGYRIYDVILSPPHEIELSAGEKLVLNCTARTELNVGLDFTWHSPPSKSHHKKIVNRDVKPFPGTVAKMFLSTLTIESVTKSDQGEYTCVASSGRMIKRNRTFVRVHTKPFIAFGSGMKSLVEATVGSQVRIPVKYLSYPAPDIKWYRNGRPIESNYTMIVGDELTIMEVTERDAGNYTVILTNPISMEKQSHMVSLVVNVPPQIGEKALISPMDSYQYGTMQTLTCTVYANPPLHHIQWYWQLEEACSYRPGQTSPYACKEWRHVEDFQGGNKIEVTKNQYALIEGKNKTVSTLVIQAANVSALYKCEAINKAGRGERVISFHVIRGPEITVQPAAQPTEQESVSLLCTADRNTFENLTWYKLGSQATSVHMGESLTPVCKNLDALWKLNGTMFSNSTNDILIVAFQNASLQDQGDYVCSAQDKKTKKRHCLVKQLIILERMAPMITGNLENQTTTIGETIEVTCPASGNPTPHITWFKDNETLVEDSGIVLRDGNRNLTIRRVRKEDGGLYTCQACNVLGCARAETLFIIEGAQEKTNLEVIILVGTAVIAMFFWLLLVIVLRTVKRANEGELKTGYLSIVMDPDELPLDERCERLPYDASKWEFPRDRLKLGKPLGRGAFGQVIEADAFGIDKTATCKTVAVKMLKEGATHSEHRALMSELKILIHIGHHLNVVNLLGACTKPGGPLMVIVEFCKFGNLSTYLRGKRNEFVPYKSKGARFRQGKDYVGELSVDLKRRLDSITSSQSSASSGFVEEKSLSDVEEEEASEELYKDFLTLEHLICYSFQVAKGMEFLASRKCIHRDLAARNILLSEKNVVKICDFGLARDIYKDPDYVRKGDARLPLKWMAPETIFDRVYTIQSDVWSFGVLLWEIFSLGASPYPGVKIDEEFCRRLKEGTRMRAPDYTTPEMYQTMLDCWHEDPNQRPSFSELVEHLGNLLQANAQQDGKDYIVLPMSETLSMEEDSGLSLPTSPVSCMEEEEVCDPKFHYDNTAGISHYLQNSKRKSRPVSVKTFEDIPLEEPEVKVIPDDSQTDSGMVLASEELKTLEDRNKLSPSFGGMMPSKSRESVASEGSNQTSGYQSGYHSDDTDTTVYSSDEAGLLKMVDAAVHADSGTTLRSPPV

B1: Myc2.RYK (double Myc epitope-tagged mouse RYK) (receptor, UniProt Q01887 35-594, looked up, not shown: small tags and cut ends)
chain: RSPALAAAPAGPSVSLYLSEDEVRRLLGLDAELYYVRNDLISHYALSFNLLVPSETNFLHFTWHAKSKVEYKLGFQVDNFVAMGMPQVNISAQGEVPRTLSVFRVELSCTGKVDSEVMILMQLNLTVNSSKNFTVLNFKRRKMCYKKLEEVKTSALDKNTSRTIYDPVHAAPTTSTRVFYISVGVCCAVIFLVAIILAVLHLHSMKRIELDDSISASSSSQGLSQPSTQTTQYLRADTPNNATPITSSSGYPTLRIEKNDLRSVTLLEAKAKVKDIAISRERITLKDVLQEGTFGRIFHGILVDEKDPNKEKQTFVKTVKDQASEVQVTMMLTESCKLRGLHHRNLLPITHVCIEEGEKPMVVLPYMNWGNLKLFLRQCKLVEANNPQAISQQDLVHMAIQIACGMSYLARREVIHRDLAARNCVIDDTLQVKITDNALSRDLFPMDYHCLGDNENRPVRWMALESLVNNEFSSASDVWAFGVTLWELMTLGQTPYVDIDPFEMAAYLKDGYRIAQPINCPDELFAVMACCWALDPEERPKFQQLVQCLTEFHAALGAYV
notes: mature; also called wild-type RYK
B1: no binding (mouse VEGFR2); no binding (human EGFR); no binding (mouse TIE2). B1: binds (human EphB3).

B2: endogenous mouse RYK (receptor, UniProt Q01887 35-594, looked up)
chain: RSPALAAAPAGPSVSLYLSEDEVRRLLGLDAELYYVRNDLISHYALSFNLLVPSETNFLHFTWHAKSKVEYKLGFQVDNFVAMGMPQVNISAQGEVPRTLSVFRVELSCTGKVDSEVMILMQLNLTVNSSKNFTVLNFKRRKMCYKKLEEVKTSALDKNTSRTIYDPVHAAPTTSTRVFYISVGVCCAVIFLVAIILAVLHLHSMKRIELDDSISASSSSQGLSQPSTQTTQYLRADTPNNATPITSSSGYPTLRIEKNDLRSVTLLEAKAKVKDIAISRERITLKDVLQEGTFGRIFHGILVDEKDPNKEKQTFVKTVKDQASEVQVTMMLTESCKLRGLHHRNLLPITHVCIEEGEKPMVVLPYMNWGNLKLFLRQCKLVEANNPQAISQQDLVHMAIQIACGMSYLARREVIHRDLAARNCVIDDTLQVKITDNALSRDLFPMDYHCLGDNENRPVRWMALESLVNNEFSSASDVWAFGVTLWELMTLGQTPYVDIDPFEMAAYLKDGYRIAQPINCPDELFAVMACCWALDPEERPKFQQLVQCLTEFHAALGAYV
notes: also called RYK beta subunit
B2: binds (endogenous mouse AF-6).
